These results are taken from publication PMC5128726, “Mechanism and Regulation of DNA-Protein Crosslink Repair by the DNA-Dependent Metalloprotease SPRTN”.

Changes are numbered by the printed parent chain.

The target in data set [1] is T1, SPRTN-EQ (Homo sapiens, UniProt Q9H040 1-489, E112Q).
T1 sequence: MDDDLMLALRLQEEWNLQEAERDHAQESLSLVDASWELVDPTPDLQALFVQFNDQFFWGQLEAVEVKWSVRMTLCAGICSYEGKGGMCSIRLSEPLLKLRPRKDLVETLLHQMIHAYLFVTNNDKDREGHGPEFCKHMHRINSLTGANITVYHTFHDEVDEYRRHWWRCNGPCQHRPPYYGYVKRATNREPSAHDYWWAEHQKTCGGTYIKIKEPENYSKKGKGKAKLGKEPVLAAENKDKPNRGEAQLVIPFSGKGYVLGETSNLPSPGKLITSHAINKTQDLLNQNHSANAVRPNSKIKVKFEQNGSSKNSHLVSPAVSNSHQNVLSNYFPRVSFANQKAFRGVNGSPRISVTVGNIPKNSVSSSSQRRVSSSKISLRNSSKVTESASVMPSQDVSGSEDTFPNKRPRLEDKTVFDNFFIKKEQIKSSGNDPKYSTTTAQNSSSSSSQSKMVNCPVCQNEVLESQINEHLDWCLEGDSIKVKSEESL
Nature of the data set: SAXS; 1:1.2 protein:DNA; Rg +8-10 A, Dmax +30 A; 50 mM HEPES pH 7.5, 75 mM KCl, 1% glycerol; Oligo EMSA: protein in 250 mM NaCl, 50 mM HEPES pH 7.5, 10% glycerol mixed 1:1 with DNA in 0.2 mg/ml BSA, 15 uM (so in the source) HEPES pH 7.5; 20 min on ice; 6% PAGE. Phage DNA: 0.8% agarose, 4 C. Conditions: protein: recombinant; tags: N-terminal GST, C-terminal Strep. (In general: Mobility shift assays separate free from complexed probe on a gel.)

Data set [2] addresses T2, SPRTN 247-489 (Homo sapiens, UniProt Q9H040 247-489).
T2 sequence: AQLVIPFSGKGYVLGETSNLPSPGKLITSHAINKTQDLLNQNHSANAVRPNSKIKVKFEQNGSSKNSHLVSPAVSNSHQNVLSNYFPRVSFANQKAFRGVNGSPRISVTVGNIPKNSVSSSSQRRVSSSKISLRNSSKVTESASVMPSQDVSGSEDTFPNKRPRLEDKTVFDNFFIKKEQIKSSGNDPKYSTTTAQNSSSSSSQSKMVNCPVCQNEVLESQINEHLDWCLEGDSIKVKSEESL
Nature of the data set: EMSA; 250 nM DNA, 0.5-1 uM protein; Oligo EMSA: protein in 250 mM NaCl, 50 mM HEPES pH 7.5, 10% glycerol mixed 1:1 with DNA in 0.2 mg/ml BSA, 15 uM (so in the source) HEPES pH 7.5; 20 min on ice; 6% PAGE. Phage DNA: 0.8% agarose, 4 C. Conditions: protein: recombinant; label: 5' Alexa488.

Data set [3] deals with T3, SPRTN WT (Homo sapiens, UniProt Q9H040 1-489).
T3 sequence: T1 sequence with Q112E
Described as above. To be noted: protein: recombinant; tags: N-terminal GST, C-terminal Strep; label: 5' Alexa488.

Data set [4] has as its target T4, SPRTN 200-250 (Homo sapiens, UniProt Q9H040 200-250).
T4 sequence: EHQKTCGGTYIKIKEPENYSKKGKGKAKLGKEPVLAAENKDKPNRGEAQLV
Nature of the data set: EMSA; 250 nM DNA, 0.25-1 uM protein; Oligo EMSA: protein in 250 mM NaCl, 50 mM HEPES pH 7.5, 10% glycerol mixed 1:1 with DNA in 0.2 mg/ml BSA, 15 uM (so in the source) HEPES pH 7.5; 20 min on ice; 6% PAGE. Phage DNA: 0.8% agarose, 4 C. Conditions: protein: recombinant; tags: GST; label: 5' Alexa488.

Data set [5] addresses T5, SPRTN 1-199 (Homo sapiens, UniProt Q9H040 1-199).
T5 sequence: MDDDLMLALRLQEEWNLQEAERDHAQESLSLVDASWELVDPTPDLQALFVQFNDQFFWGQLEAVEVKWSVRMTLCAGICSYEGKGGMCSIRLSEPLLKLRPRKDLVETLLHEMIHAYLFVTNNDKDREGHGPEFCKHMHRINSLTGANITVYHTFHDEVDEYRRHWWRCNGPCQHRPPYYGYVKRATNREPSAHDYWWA
The data set is described as above. To be noted: protein: recombinant; tags: N-terminal GST, C-terminal Strep; label: 5' Alexa488.

For the molecule ACGCTGCCGAATTCT (ssDNA) [15-mer ssDNA], the binding result in data set [1] is recorded as “binds”.
Consider ACGCTGCCGAATTCTACCAGTGCCTTGCTA (ssDNA) [Alexa488 30-mer ss oligonucleotide], for which the binding result in data set [2] was “no binding”; in data set [3] it was “binds”; in data set [4], “binds”; in data set [5], “no binding”.
